Read-outs that look alike come from different tables or passages of the source.
T1: human ANG2-RBD-mouse Fc-region fusion (human, UniProt O15123 275-496, limits assumed)
T1 sequence (looked up): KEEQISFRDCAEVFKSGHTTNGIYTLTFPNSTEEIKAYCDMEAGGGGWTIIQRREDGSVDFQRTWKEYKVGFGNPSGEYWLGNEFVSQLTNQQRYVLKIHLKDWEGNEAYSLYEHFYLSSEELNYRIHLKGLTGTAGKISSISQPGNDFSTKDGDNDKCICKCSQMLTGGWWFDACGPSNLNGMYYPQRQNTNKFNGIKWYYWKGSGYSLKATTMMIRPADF

B1: antibody 0086 (antibody, V domains shown)
VH: EVQLVESGGGLVQPGGSLRLSCAASGFTFSSYWMSWVRQAPEKGLEWVSTISDGGGLTYYADSVKGRFTISRDNAKNSLYLQMNSLRAEDTAVYYCAESGGYTDWLFGYWGQGTLVTVSS
VL: not shown
B2: antibody 0085 (antibody, V domains shown)
VH: B1 VH
VL: not shown
B3: antibody 0117 (bispecific anti-VEGF/PDGF-B CrossMab antibody) (bispecific antibody, human IgG1, kappa, L234A L235A)
chain 1: DIQLTQSPSSLSASVGDRVTITCSASQDISNYLNWYQQKPGKAPKVLIYFTSSLHSGVPSRFSGSGSGTDFTLTISSLQPEDFATYYCQQYSTVPWTFGQGTKVEIKSSASTKGPSVFPLAPSSKSTSGGTAALGCLVKDYFPEPVTVSWNSGALTSGVHTFPAVLQSSGLYSLSSVVTVPSSSLGTQTYICNVNHKPSNTKVDKKVEPKSCDKTHTCPPCPAPEAAGGPSVFLFPPKPKDTLMASRTPEVTCVVVDVSHEDPEVKFNWYVDGVEVHNAKTKPREEQYNSTYRVVSVLTVLAQDWLNGKEYKCKVSNKALGAPIEKTISKAKGQPREPQVYTLPPCRDELTKNQVSLWCLVKGFYPSDIAVEWESNGQPENNYKTTPPVLDSDGSFFLYSKLTVDKSRWQQGNVFSCSVMHEALHNAYTQKSLSLSPGK
chain 2: not shown
chain 3: EVQLVESGGGLVQPGGSLRLSCAASGYDFTHYGMNWVRQAPGKGLEWVGWINTYTGEPTYAADFKRRFTFSLDTSKSTAYLQMNSLRAEDTAVYYCAKYPYYYGTSHWYFDVWGQGTLVTVSSASVAAPSVFIFPPSDEQLKSGTASVVCLLNNFYPREAKVQWKVDNALQSGNSQESVTEQDSKDSTYSLSSTLTLSKADYEKHKVYACEVTHQGLSSPVTKSFNRGEC
chain 4: not shown
notes: also called anti-PDGFB/VEGF antibody
B4: antibody 0144 (bispecific anti-ANG2/PDGF-B CrossMab antibody) (bispecific antibody, human IgG1, kappa, L234A L235A)
heavy 1: SYVLTQPPSVSVAPGQTARITCGGNNIGSKSVHWYQQKPGQAPVLVVYDTSDRPSGIPERFSGSNSGNTATLTISRVEAGDEADYYCQVWDSSSDHWVFGGGTKLTVLSSASTKGPSVFPLAPSSKSTSGGTAALGCLVKDYFPEPVTVSWNSGALTSGVHTFPAVLQSSGLYSLSSVVTVPSSSLGTQTYICNVNHKPSNTKVDKKVEPKSCDKTHTCPPCPAPEAAGGPSVFLFPPKPKDTLMASRTPEVTCVVVDVSHEDPEVKFNWYVDGVEVHNAKTKPREEQYNSTYRVVSVLTVLAQDWLNGKEYKCKVSNKALGAPIEKTISKAKGQPREPQVYTLPPCRDELTKNQVSLWCLVKGFYPSDIAVEWESNGQPENNYKTTPPVLDSDGSFFLYSKLTVDKSRWQQGNVFSCSVMHEALHNAYTQKSLSLSPGK
heavy 2: not shown
light 1: not shown
light 2: not shown
B5: mumAb (murine anti-human PDGF-B antibody) (antibody, V domains shown)
VH: QVQLQQSGAELMKPGASVKISCKATGYTFSSYWIEWVKQRPGHGLEWIGEILPGSGSTNYNEKFKVKATFTADTSSNTAYMQLSSLTSEDSAVYYCAQTTQDFDSWGQGTTLTVSS
VL: DIVLTQSPGSLAVSLGQRATISCRASESVDIYGYSFMHWYQQKPGQPPKLLIYRASNLESGIPARFSGSGSRTDFTLTINPVEADDVATYYCQQSNEDPRTFGGGTKLEIK

Tests used:
human PDGF-BB [1] = biological target: T2, human PDGF-BB (human, UniProt P01127 82-190); test: cell-based or functional assay
T2 sequence (P01127 82-190 limits assumed): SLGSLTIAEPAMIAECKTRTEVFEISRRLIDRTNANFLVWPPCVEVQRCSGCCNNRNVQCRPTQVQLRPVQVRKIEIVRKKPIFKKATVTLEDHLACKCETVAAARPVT

human PDGF-BB [2] = biological target: T2, human PDGF-BB; test: cell-based or functional assay; remark: listed apart in the source
human PDGF-BB [3] = biological target: T2, human PDGF-BB; test: cell-based or functional assay; remark: listed apart in the source
human PDGF-BB [4] = biological target: T2, human PDGF-BB; test: SPR, on immobilized human PDGF-BB (Example 32); set-up: t½: unit not given here
[5] = biological target: T1, human ANG2-RBD-mouse Fc-region fusion; test: cell-based or functional assay
human PDGF-BB [6] = biological target: T2, human PDGF-BB; test: cell-based or functional assay; remark: listed apart in the source

| Binder | Balb-C3T3 Proliferation % neutralization (human PDGF-BB [1]) [%] | Balb-C3T3 Proliferation IC50 (human PDGF-BB [1]) [nM] | Pericytes Migration % neutralization (human PDGF-BB [1]) [%] | Pericytes Migration IC50 (human PDGF-BB [1]) [nM] | Pericytes Proliferation % neutralization (human PDGF-BB [1]) [%] | Pericytes Proliferation IC50 (human PDGF-BB [1]) [nM] | other results |
| --- | --- | --- | --- | --- | --- | --- | --- |
| B1 | 100 | 0.11 | 100 | 0.09 | 100 | 0.09 | – |
| B2 | 100 | 0.06 | 90 | 0.15 | 100 | 0.11 | – |
| B3 | – | – | – | – | – | – | IC50 Proliferation 3T3 (human PDGF-BB [2]): 0.019 nM; IC50 Proliferation human pericytes (human PDGF-BB [2]): 0.016 nM; IC50 Migration-Inhibition human pericytes (human PDGF-BB [3]): 0.06 nM; IC50 Phospho-Inhibition human pericytes (human PDGF-BB [3]): 0.055 nM; Kd (human PDGF-BB [4]): 3 nM; koff (human PDGF-BB [4]): 0.000245 s⁻¹; kon (human PDGF-BB [4]): 76700 M⁻¹ s⁻¹; t½ (human PDGF-BB [4]): 47 |
| B4 | – | – | – | – | – | – | ANG2 specific pTie2-ELISA [5]: 6 fold |
| B5 | – | – | – | – | – | – | Balb-C3T3 Proliferation IC50 (human PDGF-BB [6]): 0.179 nM; Pericytes Migration IC50 (human PDGF-BB [6]): 0.08 nM; Pericytes Proliferation IC50 (human PDGF-BB [6]): 0.21 nM |

Reference: US20170247440A1 (Hoffmann-La Roche, published 2017)
